Reference: publication PMC3706991

Key:
[1] = target: CD27 (human (endogenous in CD4+ T cells of blood donors)) (UniProt P26842)
[2] = target: CD27 (human (endogenous in CD4+ T cells of blood donors)) (UniProt P26842); remark: listed apart in the source

Sequence of UniProt P26842 (P26842 20-260): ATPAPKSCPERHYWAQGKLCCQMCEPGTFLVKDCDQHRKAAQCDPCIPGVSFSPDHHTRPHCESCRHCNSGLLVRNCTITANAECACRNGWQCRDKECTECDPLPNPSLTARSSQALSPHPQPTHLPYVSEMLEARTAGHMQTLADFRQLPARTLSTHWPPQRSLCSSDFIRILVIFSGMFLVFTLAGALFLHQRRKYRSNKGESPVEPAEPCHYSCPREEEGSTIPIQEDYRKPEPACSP

- decrease in FasL expression level on CD4+ T cells (FACS) in co-culture with HB1.F3 after addition of anti-CD27 mAb [1]: 50%
- HB1.F3 (NSC)-mediated apoptosis of CD4+ T cells (Annexin V/PI, FACS) in co-culture with anti-CD27 blocking mAb (LG.7F9), 0-1 ug/ml [2]: 50%
- HB1.F3 (NSC)-mediated apoptosis of CD4+ T cells (Annexin V/PI, FACS) in co-culture with anti-CD70 blocking mAb (BU69), 0-1 ug/ml [2]: 50%
B1: CD70 (ligand)
chain: MPEEGSGCSVRRRPYGCVLRAALVPLVAGLVICLVVCIQRFAQAQQQLPLESLGWDVAELQLNHTGPQQDPRLYWQGGPALGRSFLHGPELDKGQLRIHRDGIYMVHIQVTLAICSSTTASRHHPTTLAVGICSPASRSISLLRLSFHQGCTIASQRLTPLARGDTLCTNLTGTLLPSRNTDETFFGVQWVRP
